One molecule from paper PMC9775377, “The High-Resolution Structure Reveals Remarkable Similarity in PD-1 Binding of Cemiplimab and Dostarlimab, the FDA-Approved Antibodies for Cancer Immunotherapy” (Biomedicines, 2022) can be followed below.

The target in this test is T1, extracellular domain of human PD-1 (aa 26-150) (human, UniProt Q15116).
T1 construct: Programmed cell death-1 (PD-1), human, extracellular domain, aa 26-150; any point mutation of the construct would be told there or in PDB 8GY5; also called Programmed cell death-1; ectodomain of PD-1
Description: crystal structure; Fab mixed with PD-1 at a molar ratio of 1:1.2, complex purified by gel filtration (20 mM Tris pH 7.5, 200 mM NaCl); hanging-drop vapor diffusion, 0.1 M sodium HEPES pH 7.5, 5% PEG 3350, 20 °C; 1.98 Å, two copies of the complex in the asymmetric unit. Conditions: both partners purified.

T1 sequence (Q15116 26-150): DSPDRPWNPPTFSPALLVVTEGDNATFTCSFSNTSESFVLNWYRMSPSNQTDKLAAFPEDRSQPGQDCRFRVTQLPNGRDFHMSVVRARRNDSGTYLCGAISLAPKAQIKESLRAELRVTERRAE

B1: cemiplimab Fab (Fab, V domains shown)
VH: EVQLLESGGVLVQPGGSLRLSCAASGFTFSNFGMTWVRQAPGKGLEWVSGISGGGRDTYFADSVKGRFTISRDNSKNTLYLQMNSLKGEDTAVYYCVKWGNIYFDYWGQGTLVTVSS
VL: DIQMTQSPSSLSASVGDSITITCRASLSINTFLNWYQQKPGKAPNLLIYAASSLHGGVPSRFSGSGSGTDFTLTIRTLQPEDFATYYCQQSSNTPFTFGPGTVVDFR
notes: heavy chain of the cemiplimab Fab; in PDB 8GY5 (deposited here); light chain (kappa) of the cemiplimab Fab; Cemiplimab is a fully human IgG4 (S228P) kappa antibody; also called Fab fragment of cemiplimab; LIBTAYO
As to B1, the binding result was “binds”.
